{
  "source": "paper doi:10.1101/2022.09.01.506182",
  "about": "(bioRxiv, 2022)",
  "binders": {"B1": {"name": "α-LGR5-ADC (murine clone 2 conjugated to MMAE, sulphatase cleavable linker) (antibody, V domains shown)", "VH": "QVQLQQPGAELVKPGASVKLSCKASGYTFTNYWMQWVKQRPGQGLEWIGEIDPSDSYTNYNQKFKGKATLTVDTSSSTAYMQLSSLTSEDSAVYYCARSLSGYVDYWGQGTTLTVSS", "VL": "DIQMTQTTSSLSASLGDRVTISCRASQDISNRLNWYQQKPDGTVKLLISYRSRLHSGVPSRFSGSGSGTDYSLTISNLEQEDIATYFCQQGNSLPPTFGGGTKLEVR"}, "B2": {"name": "α-LGR5 hybridoma clone 1 (antibody, V domains shown)", "VH": "B1 VH with N31S, S56Y", "VL": "B1 VL with T7S, S22N, S30R, H55Q, D70E, S93T"}, "B3": {"name": "α-LGR5 hybridoma clone 2 (antibody, V domains shown)", "VH": "B1 VH", "VL": "B1 VL"}, "B4": {"name": "α-LGR5 hybridoma clone 3 (antibody, V domains shown)", "VH": "B1 VH with N31S, T58S", "VL": "B1 VL with H55Q, Q80E, S93T"}, "B5": {"name": "α-LGR5 hybridoma clone 4 (antibody, V domains shown)", "VH": "B1 VH with N31D, K65Q, M81I, E89D, Y103S", "VL": "B1 VL with H55Q, S76T, S93T"}, "B6": {"name": "murine α-LGR5 coupled to Dylight650 fluorophore (antibody, V domains shown)", "VH": "B1 VH", "VL": "B1 VL"}},
  "key": {"[1]": {"molecular_target": "T1, endogenous LGR5 of human cancer cell lines (human (endogenous in NALM6, REH, 697, LoVo)) (UniProt O75473)", "T1 sequence": "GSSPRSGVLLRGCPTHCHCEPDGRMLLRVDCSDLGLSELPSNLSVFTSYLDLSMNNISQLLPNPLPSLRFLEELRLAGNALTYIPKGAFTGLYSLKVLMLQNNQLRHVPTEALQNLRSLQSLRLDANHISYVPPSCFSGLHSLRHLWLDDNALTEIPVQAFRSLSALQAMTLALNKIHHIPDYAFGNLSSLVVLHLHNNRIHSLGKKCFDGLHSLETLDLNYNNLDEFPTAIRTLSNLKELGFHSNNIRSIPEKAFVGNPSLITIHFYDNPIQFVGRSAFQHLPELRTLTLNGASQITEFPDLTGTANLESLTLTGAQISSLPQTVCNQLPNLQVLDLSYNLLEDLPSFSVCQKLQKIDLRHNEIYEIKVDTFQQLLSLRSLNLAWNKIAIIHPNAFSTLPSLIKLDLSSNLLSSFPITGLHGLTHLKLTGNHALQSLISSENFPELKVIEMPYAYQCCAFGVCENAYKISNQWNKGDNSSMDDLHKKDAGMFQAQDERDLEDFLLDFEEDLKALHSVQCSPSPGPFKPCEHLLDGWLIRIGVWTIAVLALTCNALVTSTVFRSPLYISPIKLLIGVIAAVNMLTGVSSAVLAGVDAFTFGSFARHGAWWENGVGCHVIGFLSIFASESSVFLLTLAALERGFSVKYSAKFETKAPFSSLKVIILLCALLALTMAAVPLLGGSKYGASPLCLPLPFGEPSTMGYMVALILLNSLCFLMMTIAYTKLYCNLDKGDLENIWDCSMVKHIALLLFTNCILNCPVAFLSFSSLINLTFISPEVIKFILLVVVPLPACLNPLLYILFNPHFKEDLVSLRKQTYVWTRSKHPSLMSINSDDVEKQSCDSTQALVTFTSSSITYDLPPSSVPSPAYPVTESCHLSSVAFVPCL"}, "[2]": {"molecular_target": "T1, endogenous LGR5 of human cancer cell lines (human (endogenous in NALM6, REH, 697, LoVo))", "remark": "listed apart in the source"}, "[3]": {"molecular_target": "T2, RAD-displayed Fragment 1A of human LGR5 (Homo sapiens, UniProt O75473)", "T2 chain": "GSSPRSGVLLRGCPT", "test": "BLI"}, "[4]": {"molecular_target": "T2, RAD-displayed Fragment 1A of human LGR5", "test": "western blot"}, "[5]": {"molecular_target": "T3, endogenous LGR5 of human cancer cell lines (Homo sapiens, UniProt O75473)", "test": "western blot"}, "[6]": {"molecular_target": "human LGR4 transgene with N-terminal HA tag, V2 receptor tail and eGFP (Homo sapiens, UniProt Q9BXB1)", "sequence (Q9BXB1 25-951)": "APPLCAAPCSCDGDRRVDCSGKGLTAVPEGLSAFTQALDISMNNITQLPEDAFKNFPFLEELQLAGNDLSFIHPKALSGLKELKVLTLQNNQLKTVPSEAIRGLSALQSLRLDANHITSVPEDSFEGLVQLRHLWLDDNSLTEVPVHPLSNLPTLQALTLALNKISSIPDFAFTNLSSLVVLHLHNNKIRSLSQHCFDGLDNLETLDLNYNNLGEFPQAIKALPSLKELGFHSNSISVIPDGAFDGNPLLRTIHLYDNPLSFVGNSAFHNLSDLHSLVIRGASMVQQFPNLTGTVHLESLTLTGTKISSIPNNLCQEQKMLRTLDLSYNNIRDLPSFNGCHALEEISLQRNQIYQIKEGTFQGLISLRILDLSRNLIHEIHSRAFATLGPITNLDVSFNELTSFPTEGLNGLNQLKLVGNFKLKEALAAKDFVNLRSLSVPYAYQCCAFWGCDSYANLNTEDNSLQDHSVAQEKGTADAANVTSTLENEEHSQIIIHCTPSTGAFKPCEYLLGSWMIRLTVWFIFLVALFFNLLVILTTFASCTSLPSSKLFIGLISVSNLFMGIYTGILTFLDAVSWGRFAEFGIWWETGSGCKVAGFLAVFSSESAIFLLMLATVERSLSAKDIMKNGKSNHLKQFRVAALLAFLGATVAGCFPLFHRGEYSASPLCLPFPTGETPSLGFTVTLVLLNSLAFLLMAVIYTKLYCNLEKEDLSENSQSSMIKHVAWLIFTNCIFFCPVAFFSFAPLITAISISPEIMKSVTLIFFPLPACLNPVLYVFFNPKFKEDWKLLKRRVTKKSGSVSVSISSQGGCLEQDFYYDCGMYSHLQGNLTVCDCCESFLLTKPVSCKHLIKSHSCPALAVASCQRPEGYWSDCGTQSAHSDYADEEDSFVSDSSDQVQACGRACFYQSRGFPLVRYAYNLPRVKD", "test": "flow cytometry on cells"}, "[7]": {"molecular_target": "murine LGR5 transgene with N-terminal HA tag, V2 receptor tail and eGFP (Mus musculus, UniProt Q9Z1P4)", "sequence (Q9Z1P4 22-907)": "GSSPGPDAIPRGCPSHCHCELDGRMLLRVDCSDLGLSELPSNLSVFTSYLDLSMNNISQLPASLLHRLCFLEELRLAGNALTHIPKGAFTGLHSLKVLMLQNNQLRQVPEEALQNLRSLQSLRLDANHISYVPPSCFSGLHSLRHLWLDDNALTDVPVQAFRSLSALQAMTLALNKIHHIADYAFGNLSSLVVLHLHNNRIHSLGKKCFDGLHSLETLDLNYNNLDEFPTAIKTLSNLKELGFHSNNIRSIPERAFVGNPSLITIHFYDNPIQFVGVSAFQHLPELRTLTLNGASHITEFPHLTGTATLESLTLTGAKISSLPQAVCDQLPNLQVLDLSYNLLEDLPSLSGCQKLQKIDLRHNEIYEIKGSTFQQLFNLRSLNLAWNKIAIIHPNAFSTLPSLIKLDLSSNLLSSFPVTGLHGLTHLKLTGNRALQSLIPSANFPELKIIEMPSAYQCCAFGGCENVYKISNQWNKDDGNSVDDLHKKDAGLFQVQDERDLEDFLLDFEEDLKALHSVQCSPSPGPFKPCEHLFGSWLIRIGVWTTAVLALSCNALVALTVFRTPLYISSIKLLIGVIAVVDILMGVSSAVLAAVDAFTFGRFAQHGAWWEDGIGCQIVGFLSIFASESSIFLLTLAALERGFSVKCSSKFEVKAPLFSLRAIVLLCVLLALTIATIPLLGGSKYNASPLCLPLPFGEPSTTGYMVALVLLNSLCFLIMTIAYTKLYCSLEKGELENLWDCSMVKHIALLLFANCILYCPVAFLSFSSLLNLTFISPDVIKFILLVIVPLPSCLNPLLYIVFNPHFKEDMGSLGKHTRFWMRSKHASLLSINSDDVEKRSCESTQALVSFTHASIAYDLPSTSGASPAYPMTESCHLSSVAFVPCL", "test": "flow cytometry on cells"}, "[8]": {"molecular_target": "T3, endogenous LGR5 of human cancer cell …", "test": "flow cytometry on cells"}, "[9]": {"molecular_target": "T2, RAD-displayed Fragment 1A of human LGR5", "test": "immunostaining of cells or tissue"}},
  "note": "Where a chain is given by its changes, count along the chain named.",
  "data": [
    {"binder": "B1", "values": [
      {"measurement": "killing of NALM6 cells after three days of treatment (CellTiter-Glo), EC50", "setting": "[1]", "result": 4, "unit": "nM"},
      {"measurement": "killing of REH cells after three days of treatment (CellTiter-Glo), EC50", "setting": "[1]", "result": 10, "unit": "nM"},
      {"measurement": "killing of LoVo cells after three days of treatment (CellTiter-Glo), EC50", "setting": "[2]", "result": 9, "unit": "nM"},
      {"measurement": "binding result", "setting": "[3]", "result": "binds"}
    ]},
    {"binder": "B2", "values": [
      {"measurement": "binding result", "setting": "[4]", "result": "binds"}
    ]},
    {"binder": "B3", "values": [
      {"measurement": "binding result", "setting": "[5]", "result": "binds"},
      {"measurement": "binding result", "setting": "[4]", "result": "binds"}
    ]},
    {"binder": "B4", "values": [
      {"measurement": "binding result", "setting": "[4]", "result": "binds"}
    ]},
    {"binder": "B5", "values": [
      {"measurement": "binding result", "setting": "[4]", "result": "binds"}
    ]},
    {"binder": "B6", "values": [
      {"measurement": "binding result", "setting": "[6]", "result": "no binding"},
      {"measurement": "binding result", "setting": "[7]", "result": "no binding"},
      {"measurement": "binding result", "setting": "[8]", "result": "binds"},
      {"measurement": "binding result", "setting": "[9]", "result": "binds"}
    ]}
  ]
}
